Test results published in FireProtDB (doi:10.1093/protein/gzw068).

B1: E247Y, Q93D82 (parent)
chain: MSTAIVTNVKHFGGMGSALRLSEAGHTVACHDESFKQKDELEAFAETYPQLKPMSEQEPAELIEAVTSAYGQVDVLVSNDIFAPEFQPIDKYAVEDYRGAVEALQIRPFALVNAVASQMKKRKSGHIIFITSATPFGPWKELSTYTSARAGACTLANALSKELGEYNIPVFAIGPNYLHSEDSPYFYPTEPWKTNPEHVAHVKKVTALQRLGTQKELGELVAFLASGSCDYLTGQVFWLAGGFPMIERWPGMPE

Variants of: B1
Conditions: Rhizobium radiobacter; pH 7.7; Thermal; CD; Phosphate 5mM; structure 1PWX; whole UniProt chain shown

| Variant | Tm | change of melting temperature, mutant - wild type (higher = more stable) |
| --- | --- | --- |
| E247Y | 63 °C | -2 °C |
| A200Y | 62.5 °C | -2.5 °C |
| D230N | 62 °C | -3 °C |
| H26M | 64.5 °C | -0.5 °C |
| A103Y | 60.5 °C | -4.5 °C |
| T134W | 64 °C | -1 °C |
| E61Q | 66.5 °C | 1.5 °C |
| Q209H | 58 °C | -7 °C |
| K91Q | 61 °C | -4 °C |
| S228R | 64.5 °C | -0.5 °C |
| T47K | 66 °C | 1 °C |
| V199K | 66.5 °C | 1.5 °C |
| E247P | 66 °C | 1 °C |
| E64A | 66 °C | 1 °C |
| V236I | 66.5 °C | 1.5 °C |
| E64Q | 66 °C | 1 °C |
| E33P | 64.5 °C | -0.5 °C |
| S22A | 64.5 °C | -0.5 °C |
| A158V | 71 °C | 6 °C |

| Variant | Tm | change of melting temperature, mutant - wild type (higher = more stable) |
| --- | --- | --- |
| E85Y | 64.5 °C | -0.5 °C |
| H198M | 55 °C | -10 °C |
| T154V | 62 °C | -3 °C |
| G99A | 66 °C | 1 °C |
| T47A | 63 °C | -2 °C |
| T47S | 64.5 °C | -0.5 °C |
| V94L | 63.5 °C | -1.5 °C |
| E141Q | 56 °C | -9 °C |
| V77I | 64 °C | -1 °C |
| T27M | 65 °C | 0 °C |
| S55P | 65 °C | 0 °C |
| E190L | 65.5 °C | 0.5 °C |
| S117K | 65 °C | 0 °C |
| D182F | 63 °C | -2 °C |
| S160A | 64.5 °C | -0.5 °C |
| K140P | 54.5 °C | -10.5 °C |
| S228K | 64.5 °C | -0.5 °C |
| D80V | 64 °C | -1 °C |
| Q87R | 68.5 °C | 3.5 °C |

| Variant | Tm | change of melting temperature, mutant - wild type (higher = more stable) |
| --- | --- | --- |
| T7M | 65 °C | 0 °C |
| E165P | 57.5 °C | -7.5 °C |
| E42M | 66.5 °C | 1.5 °C |
| S2K | 66 °C | 1 °C |
| E61K | 68.5 °C | 3.5 °C |
| Y70F | 65.5 °C | 0.5 °C |
| A69M | 62.5 °C | -2.5 °C |
| A45L | 64 °C | -1 °C |
| T134V | 68 °C | 3 °C |
| D39K | 66.5 °C | 1.5 °C |
| E42Q | 64 °C | -1 °C |
| P253S | 62.5 °C | -2.5 °C |
| R98L | 65 °C | 0 °C |
| T67Q | 63.5 °C | -1.5 °C |
| N195V | 59 °C | -6 °C |
| P244A | 67 °C | 2 °C |
| N157F | 64 °C | -1 °C |
| R107Q | 65 °C | 0 °C |
| A69R | 65.5 °C | 0.5 °C |
